Reference: paper PMC8489946 (RNA Biology, 2021)

Target: T1, upf1-DE572AA-GFP (S. cerevisiae, UniProt P30771 1-971, DE572AA)
T1 sequence (looked up): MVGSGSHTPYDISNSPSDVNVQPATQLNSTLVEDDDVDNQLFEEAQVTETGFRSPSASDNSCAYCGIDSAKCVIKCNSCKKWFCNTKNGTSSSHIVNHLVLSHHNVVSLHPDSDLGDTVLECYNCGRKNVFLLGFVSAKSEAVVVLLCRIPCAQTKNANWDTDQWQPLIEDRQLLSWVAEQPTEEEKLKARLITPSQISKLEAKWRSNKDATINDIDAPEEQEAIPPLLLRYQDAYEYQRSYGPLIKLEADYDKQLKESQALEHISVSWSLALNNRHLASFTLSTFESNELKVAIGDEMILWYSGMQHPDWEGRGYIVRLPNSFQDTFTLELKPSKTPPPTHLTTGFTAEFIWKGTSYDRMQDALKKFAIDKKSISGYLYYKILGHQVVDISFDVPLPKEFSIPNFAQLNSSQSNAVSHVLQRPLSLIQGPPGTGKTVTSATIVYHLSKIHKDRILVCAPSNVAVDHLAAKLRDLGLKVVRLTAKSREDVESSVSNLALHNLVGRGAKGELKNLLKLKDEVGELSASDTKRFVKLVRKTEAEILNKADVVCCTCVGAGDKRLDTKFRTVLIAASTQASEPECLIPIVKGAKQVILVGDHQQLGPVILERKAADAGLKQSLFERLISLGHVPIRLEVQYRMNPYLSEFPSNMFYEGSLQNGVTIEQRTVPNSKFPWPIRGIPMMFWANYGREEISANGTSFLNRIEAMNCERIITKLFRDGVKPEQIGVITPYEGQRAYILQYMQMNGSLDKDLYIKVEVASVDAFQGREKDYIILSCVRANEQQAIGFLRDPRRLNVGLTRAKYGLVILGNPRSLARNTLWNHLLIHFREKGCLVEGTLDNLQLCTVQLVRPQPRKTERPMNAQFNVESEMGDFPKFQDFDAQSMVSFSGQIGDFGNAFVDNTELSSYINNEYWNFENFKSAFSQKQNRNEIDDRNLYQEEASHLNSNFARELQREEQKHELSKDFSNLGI
Assay: co-IP

B1: Gbp2 (natural protein, UniProt P25555 1-427, looked up)
chain: MERELGMYGNDRSRSRSPVRRRLSDDRDRYDDYNDSSSNNGNGSRRQRRDRGSRFNDRYDQSYGGSRYHDDRNWPPRRGGRGRGGSRSFRGGRGGGRGRTLGPIVERDLERQFDATKRNFENSIFVRNLTFDCTPEDLKELFGTVGEVVEADIITSKGHHRGMGTVEFTKNESVQDAISKFDGALFMDRKLMVRQDNPPPEAAKEFSKKATREEIDNGFEVFIINLPYSMNWQSLKDMFKECGHVLRADVELDFNGFSRGFGSVIYPTEDEMIRAIDTFNGMEVEGRVLEVREGRFNKRKNNDRYNQRREDLEDTRGTEPGLAQDAAVHIDETAAKFTEGVNPGGDRNCFIYCSNLPFSTARSDLFDLFGPIGKINNAELKPQENGQPTGVAVVEYENLVDADFCIQKLNNYNYGGCSLQISYARRD
- fold co-precipitation relative to wild-type Upf1-GFP: > 1.5 fold
